What all share (test): kinetic table (called BLI in paragraph 35); quantity name and unit not printed in the table: KD in M follows from FIG. 12A
Assay [1] addresses T1, human LRP6 ECD, Fc-tagged (human, UniProt O75581 20-1370).
T1 construct: extracellular domain; Bought; also called LRP co-receptor; not shown: Fc tag of the purchased fusion
T1 sequence (looked up): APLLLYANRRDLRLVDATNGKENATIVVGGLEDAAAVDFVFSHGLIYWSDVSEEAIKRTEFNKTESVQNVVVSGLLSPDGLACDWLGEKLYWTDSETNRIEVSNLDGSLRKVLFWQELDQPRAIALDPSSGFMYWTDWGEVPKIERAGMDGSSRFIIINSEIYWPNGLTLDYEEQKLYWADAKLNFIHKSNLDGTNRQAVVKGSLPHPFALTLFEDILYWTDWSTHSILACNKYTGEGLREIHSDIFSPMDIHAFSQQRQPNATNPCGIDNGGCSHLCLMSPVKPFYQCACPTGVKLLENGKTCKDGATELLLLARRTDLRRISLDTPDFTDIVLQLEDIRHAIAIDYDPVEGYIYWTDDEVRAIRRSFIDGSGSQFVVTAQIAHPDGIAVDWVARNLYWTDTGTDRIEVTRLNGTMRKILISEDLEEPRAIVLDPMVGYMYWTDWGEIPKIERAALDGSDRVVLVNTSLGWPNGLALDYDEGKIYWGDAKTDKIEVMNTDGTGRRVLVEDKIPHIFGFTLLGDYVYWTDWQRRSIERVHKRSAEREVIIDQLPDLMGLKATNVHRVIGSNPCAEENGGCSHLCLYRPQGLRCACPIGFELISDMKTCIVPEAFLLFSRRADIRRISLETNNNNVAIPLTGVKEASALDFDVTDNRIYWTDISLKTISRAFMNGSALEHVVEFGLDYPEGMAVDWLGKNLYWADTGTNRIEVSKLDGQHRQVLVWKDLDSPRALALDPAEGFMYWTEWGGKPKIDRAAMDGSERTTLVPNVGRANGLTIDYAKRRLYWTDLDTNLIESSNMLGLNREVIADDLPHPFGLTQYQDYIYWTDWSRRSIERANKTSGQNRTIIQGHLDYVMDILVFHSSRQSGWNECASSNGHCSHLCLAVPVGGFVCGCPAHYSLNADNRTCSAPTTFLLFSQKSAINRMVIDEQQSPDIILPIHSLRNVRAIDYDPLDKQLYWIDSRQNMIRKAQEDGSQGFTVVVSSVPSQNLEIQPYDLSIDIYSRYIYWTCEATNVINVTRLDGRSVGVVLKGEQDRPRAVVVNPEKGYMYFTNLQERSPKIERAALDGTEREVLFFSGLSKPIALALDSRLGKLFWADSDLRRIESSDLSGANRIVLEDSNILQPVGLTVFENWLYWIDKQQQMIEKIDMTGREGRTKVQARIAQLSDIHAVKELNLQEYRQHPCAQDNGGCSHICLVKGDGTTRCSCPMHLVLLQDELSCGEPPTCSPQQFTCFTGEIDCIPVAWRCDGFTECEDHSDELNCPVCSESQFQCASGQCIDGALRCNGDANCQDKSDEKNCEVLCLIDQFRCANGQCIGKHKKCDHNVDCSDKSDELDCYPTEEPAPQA

For assay [2], the target named is T2, FZD1 CRD, Fc-tagged (human, UniProt Q9UP38 70-250).
T2 construct: domain: CRD; Bought; not shown: Fc tag of the purchased fusion
T2 sequence (Q9UP38 70-250): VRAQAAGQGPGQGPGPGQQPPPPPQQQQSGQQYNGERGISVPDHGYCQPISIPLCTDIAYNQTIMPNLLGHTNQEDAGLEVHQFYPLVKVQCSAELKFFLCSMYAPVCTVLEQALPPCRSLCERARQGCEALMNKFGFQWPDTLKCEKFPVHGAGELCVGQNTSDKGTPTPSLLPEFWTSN

Assay [3] concerns the target T3, FZD2 CRD, Fc-tagged (human, UniProt Q14332 24-190).
T3 construct: domain: CRD; Bought; not shown: Fc tag of the purchased fusion

In assay [4] the target is FZD7 CRD, Fc-tagged (human, UniProt O75084 33-185).

Usually Kd stands for a measure of binding affinity in units of concentration. Low values mean a tighter complex, high ones a looser complex.

B1: F^P*+P*-L6^1+3 (bispecific antibody)
knob: DIQMTQSPSSLSASVGDRVTITCRASQSVSSAVAWYQQKPGKAPKLLIYSASSLYSGVPSRFSGSRSGTDFTLTISSLQPEDFATYYCQQGVYLFTFGQGTKVEIKGTTAASGSSGGSSSGAEVQLVESGGGLVQPGGSLRLSCAASGFNIGSSSIHWVRQAPGKGLEWVASIYSAFASTSYADSVKGRFTISADTSKNTAYLQMNSLRAEDTAVYYCARYHFPFGFALDYWGQGTLVTVSSLEDKTHTKVEPKTSDKTHTCPPCPAPELLGGPSVFLFPPKPKDTLMISRTPEVTCVVVDVSHEDPEVKFNWYVDGVEVHNAKTKPREEQYNSTYRVVSVLTVLHQDWLNGKEYKCKVSNKALPAPIEKTISKAKGQPREPMVFDLPPSREEMTKNQVSLWCMVKGFYPSDIAVEWESNGQPENNYKTTPPVLDSDGSFFLYSKLTVDKSRWQQGNVFSCSVMHEALHNHYTQKSLSLSPGKSGSETPGTSESATPESGGGEVQLVESGGGLVQPGGSLRLSCAASGFNISYSSIHWVRQAPGKGLEWVAYISSYYGYTYYADSVKGRFTISADTSKNTAYLQMNSLRAEDTAVYYCARAHYFPWAGAMDYWGQGTLVTVSSGGGGSDIQMTQSPSSLSASVGDRVTITCRASQSVSSAVAWYQQKPGKAPKLLIYSASSLYSGVPSRFSGSRSGTDFTLTISSLQPEDFATYYCQQYYWPITFGQGTKVEIK
hole: DIQMTQSPSSLSASVGDRVTITCRASQSVSSAVAWYQQKPGKAPKLLIYSASSLYSGVPSRFSGSRSGTDFTLTISSLQPEDFATYYCQQGVYLFTFGQGTKVEIKGTTAASGSSGGSSSGAEVQLVESGGGLVQPGGSLRLSCAASGFNIGSSSIHWVRQAPGKGLEWVASIYSAFASTSYADSVKGRFTISADTSKNTAYLQMNSLRAEDTAVYYCARYHFPFGFALDYWGQGTLVTVSSLEDKTHTKVEPKSSDKTHNCPPCPAPELLGGPSVFLFPPKPKDTLMISRTPEVTCVVVDVSHEDPEVKFNWYVDGVEVHNAKTKPREEQYNSTYRVVSVLTVLHQDWLNGKEYKCKVSNKALPAPIEKTISKAKGQPREPQVYTLPPIRELMTSNQVSLSCAVKGFYPSDIAVEWESNGQPENNYKTTPPVLDSDGSFFLVSKLTVDKSRWQQGNVFSCSVMHEALHNHYTQKSLSLSPGKSGSETPGTSESATPESGGGEVQLVESGGGLVQPGGSLRLSCAASGFNISSYYIHWVRQAPGKGLEWVASIYSSYGYTSYADSVKGRFTISADTSKNTAYLQMNSLRAEDTAVYYCARTVRGSKKPYFSGWAMDYWGQGTLVTVSSGGGGSDIQMTQSPSSLSASVGDRVTITCRASQSVSSAVAWYQQKPGKAPKLLIYSASSLYSGVPSRFSGSRSGTDFTLTISSLQPEDFATYYCQQYSWGPFTFGQGTKVEIK
Turning to B1, the Kd amounted to 8.2 nM in assay [1], 0.09 nM in assay [2], 0.084 nM in assay [3] and 0.027 nM in assay [4].

B2: F^P*+P*-L6^1*+3* (bispecific antibody)
chain 1: DIQMTQSPSSLSASVGDRVTITCRASQSVSSAVAWYQQKPGKAPKLLIYSASSLYSGVPSRFSGSRSGTDFTLTISSLQPEDFATYYCQQGVYLFTFGQGTKVEIKGTTAASGSSGGSSSGAEVQLVESGGGLVQPGGSLRLSCAASGFNIGSSSIHWVRQAPGKGLEWVASIYSAFASTSYADSVKGRFTISADTSKNTAYLQMNSLRAEDTAVYYCARYHFPFGFALDYWGQGTLVTVSSLEDKTHTKVEPKTSDKTHTCPPCPAPELLGGPSVFLFPPKPKDTLMISRTPEVTCVVVDVSHEDPEVKFNWYVDGVEVHNAKTKPREEQYNSTYRVVSVLTVLHQDWLNGKEYKCKVSNKALPAPIEKTISKAKGQPREPMVFDLPPSREEMTKNQVSLWCMVKGFYPSDIAVEWESNGQPENNYKTTPPVLDSDGSFFLYSKLTVDKSRWQQGNVFSCSVMHEALHNHYTQKSLSLSPGKSGSETPGTSESATPESGGGDIQMTQSPSSLSASVGDRVTITCRASQSVSSAVAWYQQKPGKAPKLLIYSASSLYSGVPSRFSGSRSGTDFTLTISSLQPEDFATYYCQQYSWGPFTFGQGTKVEIKGTTAASGSSGGSSSGAEVQLVESGGGLVQPGGSLRLSCAASGFNISYSSIHWVRQAPGKGLEWVAYISSYYGYTYYADSVKGRFTISADTSKNTAYLQMNSLRAEDTAVYYCARAHYFPWAGAMDYWGQGTLVTVSS
chain 2: DIQMTQSPSSLSASVGDRVTITCRASQSVSSAVAWYQQKPGKAPKLLIYSASSLYSGVPSRFSGSRSGTDFTLTISSLQPEDFATYYCQQGVYLFTFGQGTKVEIKGTTAASGSSGGSSSGAEVQLVESGGGLVQPGGSLRLSCAASGFNIGSSSIHWVRQAPGKGLEWVASIYSAFASTSYADSVKGRFTISADTSKNTAYLQMNSLRAEDTAVYYCARYHFPFGFALDYWGQGTLVTVSSLEDKTHTKVEPKSSDKTHNCPPCPAPELLGGPSVFLFPPKPKDTLMISRTPEVTCVVVDVSHEDPEVKFNWYVDGVEVHNAKTKPREEQYNSTYRVVSVLTVLHQDWLNGKEYKCKVSNKALPAPIEKTISKAKGQPREPQVYTLPPIRELMTSNQVSLSCAVKGFYPSDIAVEWESNGQPENNYKTTPPVLDSDGSFFLVSKLTVDKSRWQQGNVFSCSVMHEALHNHYTQKSLSLSPGKSGSETPGTSESATPESGGGDIQMTQSPSSLSASVGDRVTITCRASQSVSSAVAWYQQKPGKAPKLLIYSASSLYSGVPSRFSGSRSGTDFTLTISSLQPEDFATYYCQQYYWPITFGQGTKVEIKGTTAASGSSGGSSSGAEVQLVESGGGLVQPGGSLRLSCAASGFNISSYYIHWVRQAPGKGLEWVASIYSSYGYTSYADSVKGRFTISADTSKNTAYLQMNSLRAEDTAVYYCARTVRGSKKPYFSGWAMDYWGQGTLVTVSS
For the molecule B2, the Kd came to 9.7 nM in assay [1], 0.13 nM in assay [2], 0.15 nM in assay [3] and 0.1 nM in assay [4].

Values taken from patent publication US20210032352A1 (ANTERA THERAPEUTICS, published 2021).
